Legend:
[1] = target: human melanocortin-4 receptor (human) (UniProt P32245); test: [I125]-NDP-α-MSH competition, hMC4-R HEK-293 membranes
[2] = target: human melanocortin-4 receptor (human) (UniProt P32245); test: cell-based or functional assay
[3] = target: melanocortin-1 receptor (mouse (B-16 melanoma cells); in some instances human (hMC1-R)) (UniProt Q01727); test: [I125]-NDP-α-MSH competition, MC1-R membranes
melanocortin-1 receptor (mouse (B-16 melanoma cells); in some instances human (hMC1-R)), sequence (Q01727 whole entry): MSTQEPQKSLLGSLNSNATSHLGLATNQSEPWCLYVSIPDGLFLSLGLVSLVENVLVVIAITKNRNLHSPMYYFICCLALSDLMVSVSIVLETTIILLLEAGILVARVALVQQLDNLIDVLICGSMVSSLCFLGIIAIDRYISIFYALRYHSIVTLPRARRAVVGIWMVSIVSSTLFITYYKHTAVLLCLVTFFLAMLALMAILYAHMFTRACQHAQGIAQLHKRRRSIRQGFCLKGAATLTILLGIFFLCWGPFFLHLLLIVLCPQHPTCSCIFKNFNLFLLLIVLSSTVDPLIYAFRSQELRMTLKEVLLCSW

human melanocortin-4 receptor (human), sequence (P32245 whole entry): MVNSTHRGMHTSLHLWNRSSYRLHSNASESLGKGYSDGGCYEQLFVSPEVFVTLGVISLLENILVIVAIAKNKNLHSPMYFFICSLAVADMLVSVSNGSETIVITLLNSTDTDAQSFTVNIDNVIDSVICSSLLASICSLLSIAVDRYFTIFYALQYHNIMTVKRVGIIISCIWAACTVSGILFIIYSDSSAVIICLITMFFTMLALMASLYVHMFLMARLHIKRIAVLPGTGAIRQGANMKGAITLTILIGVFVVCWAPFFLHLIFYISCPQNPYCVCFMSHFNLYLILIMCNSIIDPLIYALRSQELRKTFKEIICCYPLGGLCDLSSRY

| Substance | Ki [1] | EC50, cAMP, 0.1 ng/mL Doxycycline [2] | EC50, cAMP, 10 ng/mL Doxycycline [2] | Intrinsic Activity, cAMP, 0.1 ng/mL Doxycycline [2] | Intrinsic Activity, cAMP, 10 ng/mL Doxycycline [2] | Ki [3] |
| --- | --- | --- | --- | --- | --- | --- |
| Ac-Arg-cyclo(Glu-Dab(Acetyl)-D-Phe(2-Cl)-Arg-Trp-Orn)-NH2 (peptide) | 11 nM | 5 nM | 0.3 nM | 41% | 98% | 30 nM |
| Ac-Arg-cyclo(Glu-Dab-D-Phe(2-CN)-Arg-Trp-Orn)-NH2 (peptide) | 45 nM | 34 nM | 0.5 nM | 64% | 97% |  |
| Ac-Arg-cyclo(Glu-Dab-D-Phe(2-Cl)-Arg-Trp-Orn)-NH2 (peptide) |  | 0.34 nM | 0.045 nM | 91% | 96% | 1 nM |
| Ac-Arg-cyclo(Glu-Dab-D-Phe(2-NO2)-Arg-Trp-Orn)-NH2 (peptide) | 11 nM |  | 0.2 nM | 78% | 93% |  |
| Ac-Arg-cyclo(Glu-Dab-D-Phe(3,4-diOMe)-Arg-Trp-Orn)-NH2 (peptide) |  | 75 nM | 2 nM | 23% | 94% |  |
| Ac-Arg-cyclo(Glu-Dab-D-Phe(3,5-diF)-Arg-Trp-Orn)-NH2 (peptide) | 2 nM | 0.95 nM | 0.12 nM | 64% | 95% |  |
| Ac-Arg-cyclo(Glu-Dab-D-Phe(3-CN)-Arg-Trp-Orn)-NH2 (peptide) | 33 nM | 37 nM | 2 nM | 29% | 100% | 43 nM |
| Ac-Arg-cyclo(Glu-Dab-D-Phe(3-Cl)-Arg-Trp-Orn)-NH2 (peptide) |  | 0.56 nM | 0.095 nM | 36% | 99% | 1 nM |
| Ac-Arg-cyclo(Glu-Dab-D-Phe(3-F)-Arg-Trp-Orn)-NH2 (peptide) | 2 nM | 0.45 nM | 0.17 nM | 77% | 94% | 2 nM |
| Ac-Arg-cyclo(Glu-Dab-D-Phe(3-OMe)-Arg-Trp-Orn)-NH2 (peptide) |  | 1 nM | 0.065 nM | 64% | 100% |  |
| Ac-Arg-cyclo(Glu-Dab-D-Phe(4-NH2)-Arg-Trp-Orn)-NH2 (peptide) | 48 nM | 29 nM | 0.6 nM | 35% | 94% |  |
| Ac-Arg-cyclo(Glu-Dab-D-Phe(4-tBu)-Arg-Trp-Orn)-NH2 (peptide) | 4 nM |  |  | 2% | 9% |  |
| Ac-Arg-cyclo(Glu-Dab-D-Tyr-Arg-Trp-Orn)-NH2 (peptide) | 75 nM | 48 nM | 0.55 nM | 71% | 87% |  |
| Ac-Arg-cyclo(Glu-Dap-D-Phe(2-Cl)-Arg-Trp-Orn)-NH2 (peptide) | 9 nM | 16 nM | 0.47 nM | 23% | 84% |  |
| Ac-Arg-cyclo(Glu-Dap-D-Phe(3-Cl)-Arg-Trp-Orn)-NH2 (peptide) | 4 nM |  | 0.95 nM | 6% | 89% |  |
| Ac-Arg-cyclo(Glu-Hyp-D-Phe(2-F)-Arg-Trp-Orn)-NH2 (peptide) |  | 1 nM | 0.08 nM | 57% | 90% | 53 nM |
| Ac-Arg-cyclo(Glu-Phe(3-C(═O)-NH2)-D-Phe(2-Cl)-D-Phe-Arg-Trp-Orn)-NH2 (peptide) |  |  | 4 nM | 6% | 93% | 545 nM |

The remaining substances from weak to strong by Ki [1], led by results:

| Ki [1] | EC50, cAMP, 0.1 ng/mL Doxycycline [2] | EC50, cAMP, 10 ng/mL Doxycycline [2] | Intrinsic Activity, cAMP, 0.1 ng/mL Doxycycline [2] | Intrinsic Activity, cAMP, 10 ng/mL Doxycycline [2] | Ki [3] | Substance |
| --- | --- | --- | --- | --- | --- | --- |
| 1 nM | 0.95 nM | 0.14 nM | 36% | 93% |  | Ac-Arg-cyclo(Glu-Orn-D-Phe(3-Cl)-Arg-Trp-Orn)-NH2 (peptide) |
| 0.95 nM | 8 nM | 0.4 nM | 16% | 93% | 9 nM | Ac-Arg-cyclo(Glu-Dab-D-Phe(3-CF3)-Arg-Trp-Orn)-NH2 (peptide) |
| 0.95 nM | 0.13 nM | 0.13 nM | 86% | 90% |  | Ac-D-Arg-cyclo(Orn-His-D-Phe(2-F)-Arg-Trp-Glu)-NH2 (peptide) |
| 0.833 nM | 0.3 nM | 0.135 nM | 48% | 100% | 5 nM | Ac-Arg-cyclo(Glu-Dab-D-Phe(4-CN)-Arg-Trp-Orn)-NH2 (peptide) |
| 0.7 nM | 0.09 nM | 0.035 nM | 91% | 89% | 0.8 nM | Ac-Arg-cyclo(Glu-Dab-D-Phe(2-F)-Arg-Trp-Orn)-NH2 (peptide) |
| 0.7 nM | 2 nM | 0.55 nM | 17% | 95% |  | Ac-Arg-cyclo(Glu-Dab-D-Phe(3-NO2)-Arg-Trp-Orn)-NH2 (peptide) |
| 0.667 nM | 0.7 nM | 0.33 nM | 37% | 97% |  | Ac-Arg-cyclo(Glu-Dab-D-Phe(3,4,5-triF)-Arg-Trp-Orn)-NH2 (peptide) |
| 0.6 nM | 0.125 nM | 0.06 nM | 85% | 96% |  | Ac-Arg-cyclo(Glu-Dab-D-Phe(2-CF3)-Arg-Trp-Orn)-NH2 (peptide) |
| 0.5 nM | 0.14 nM | 0.085 nM | 83% | 97% |  | Ac-Arg-cyclo(Glu-Dab-D-Phe(2-Me)-Arg-Trp-Orn)-NH2 (peptide) |
| 0.5 nM |  | 0.8 nM | 14% | 100% |  | Ac-Arg-cyclo(Glu-Dab-D-Phe(4-Ph)-Arg-Trp-Orn)-NH2 (peptide) |
| 0.45 nM | 0.7 nM | 0.45 nM | 15% | 99% |  | Ac-Arg-cyclo(Glu-Dab-D-Phe(4-NO2)-Arg-Trp-Orn)-NH2 (peptide) |
| 0.4 nM | 0.42 nM | 0.22 nM | 35% | 97% |  | Ac-Arg-cyclo(Glu-Dab-D-Phe(3-Me)-Arg-Trp-Orn)-NH2 (peptide) |
| 0.3 nM | 0.125 nM | 0.12 nM | 74% | 90% |  | Ac-Arg-cyclo(Glu-Dab-D-Phe(3,4-diF)-Arg-Trp-Orn)-NH2 (peptide) |
| 0.3 nM | 0.31 nM | 0.373 nM | 36% | 100% |  | Ac-Arg-cyclo(Glu-Ser(Bzl)-D-Phe(2-Cl)-Arg-Trp-Orn)-NH2 (peptide) |
| 0.145 nM | 0.165 nM | 0.2 nM | 16% | 90% |  | Ac-Arg-cyclo(Glu-Dab-D-Phe(4-Me)-Arg-Trp-Orn)-NH2 (peptide) |
| 0.085 nM |  | 0.5 nM | 8% | 97% |  | Ac-Arg-cyclo(Glu-Dab-D-Phe(2,4-diMe)-Arg-Trp-Orn)-NH2 (peptide) |
| 0.08 nM | 0.07 nM | 0.16 nM | 28% | 100% | 0.3 nM | Ac-Arg-cyclo(Glu-Dab-D-Phe(4-Cl)-Arg-Trp-Orn)-NH2 (peptide) |
| 0.06 nM |  |  | 0.5% | 53% |  | Ac-Arg-cyclo(Glu-Dab-D-Phe(4-CF3)-Arg-Trp-Orn)-NH2 (peptide) |
| 0.055 nM |  | 0.245 nM | 11% | 100% | 0.5 nM | Ac-Arg-cyclo(Glu-Dab-D-Phe(2,4-diCl)-Arg-Trp-Orn)-NH2 (peptide) |
| 0.055 nM |  | 0.38 nM | 5% | 92% | 0.2 nM | Ac-Arg-cyclo(Glu-Dab-D-Phe(3,4-diCl)-Arg-Trp-Orn)-NH2 (peptide) |
